Values joined by “and” are separate entries in the source; they are usually repeats but may differ in a detail not shown here. Equal values may be shown once. “Also recorded” adds a separate entry of the source. Read-outs that look alike come from different tables or passages of the source.
Assays:
binding [1] = test system: binding; design: species or system influenza A virus
binding [2] = test system: binding; design: species or system influenza A virus; remark: listed apart in the source
binding [3] = target: binding; design: species or system influenza A virus; settings: read-out: mean Kd H5-IN05
binding [4] = test system: binding; design: species or system influenza A virus; remark: listed apart in the source
cell_based [5] = test system: T1, cell_based; design: species or system influenza A virus
T1 construct: other: purified scFvFc antibodies; transfected 293T cells; The full length HA genes of ... were cloned into pcDNA3.1 vector and transfected into 293T/17 cells to produce cell surface expressed HA

cell_based [6] = test system: cell_based; design: species or system influenza A virus
cell_based [7] = test system: cell_based; design: species or system influenza A virus; remark: listed apart in the source
in_vivo [8] = test system: in_vivo; design: species or system BALB/c mice
in_vivo [9] = test system: in_vivo; design: species or system BALB/c mice; remark: listed apart in the source
in_vivo [10] = test system: in_vivo; design: species or system BALB/c mice; remark: listed apart in the source
in_vivo [11] = test system: in_vivo; design: species or system BALB/c mice; remark: listed apart in the source
biochemical_functional = test system: biochemical_functional; design: species or system influenza A virus; settings: pH 8
cell_based [12] = test system: cell_based; design: species or system influenza A virus; remark: listed apart in the source
cell_based [13] = test system: cell_based
cell_based [14] = test system: cell_based; remark: listed apart in the source
binding [15] = test system: binding; design: species or system influenza A virus; remark: listed apart in the source
binding [16] = test system: binding; design: species or system influenza A virus; remark: listed apart in the source
in_vivo [17] = assay: Influenza ADE study in mice, lung virus load by plaque assay; design: species or system BALB/c mice
Text: Graphs of lung virus load vs dose in 3I14 (left) and 3I14 LALA (right) in an influenza antibody-dependent enhancement study in mice.
3I14 LALA avoids antibody-dependent enhancement (ADE).

binding [18] = target: binding (Influenza A virus, UniProt C3W5S1)
binding [19] = settings: read-out: mean Kd H9-HK99
cell_based [20] = target: cell_based (Influenza A virus, UniProt C3W5S1)
cell_based [21] = target: cell_based (Influenza A virus, UniProt P03452)
Sequence of cell_based (Influenza A virus, UniProt P03452) (P03452 344-565): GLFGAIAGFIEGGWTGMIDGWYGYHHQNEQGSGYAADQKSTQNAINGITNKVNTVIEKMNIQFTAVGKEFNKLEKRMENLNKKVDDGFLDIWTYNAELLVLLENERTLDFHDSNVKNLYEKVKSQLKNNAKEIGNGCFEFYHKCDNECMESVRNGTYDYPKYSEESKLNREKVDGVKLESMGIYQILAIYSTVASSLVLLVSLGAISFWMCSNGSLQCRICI
Sequence of cell_based (Influenza A virus, UniProt P03452) (P03452 18-343): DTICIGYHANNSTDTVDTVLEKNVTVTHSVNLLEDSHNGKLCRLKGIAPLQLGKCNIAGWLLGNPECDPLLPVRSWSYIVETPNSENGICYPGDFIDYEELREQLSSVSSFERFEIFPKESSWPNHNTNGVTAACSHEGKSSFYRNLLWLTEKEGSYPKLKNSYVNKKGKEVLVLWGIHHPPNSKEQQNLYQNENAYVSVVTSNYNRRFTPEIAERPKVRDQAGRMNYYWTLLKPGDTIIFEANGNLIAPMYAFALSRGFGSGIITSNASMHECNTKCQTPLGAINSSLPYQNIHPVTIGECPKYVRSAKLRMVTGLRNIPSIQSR

binding [22] = test system: binding; design: species or system influenza A virus; remark: listed apart in the source
in_vivo [23] = settings: cited from earlier work
in_vivo [24] = settings: oseltamivir combined with up to 8,400 mg antibody; cited from earlier work

B1: 3I14: human broadly neutralizing anti-influenza A HA stem mAb from memory B cells; VH SEQ ID NO: 2, VL SEQ ID NO: 4 (antibody, V domains shown)
VH: QVQLLESGGGVVQPGRSLRLSCAASGFTFSNYGMHWVRQAPGKGLEWVAIISFDGSKKYYANSVKGRSTISRDNSKNTLSLQMNSLGPEDTALYYCAKLPSPYYFDSRFVWVAASAFHFWGQGILVTVSS
VL: NFMLTQPPSASGTPGQRVTISCSGSSSNIGGNTVHWFQQLPGTAPKLLIYTNSLRPSGVPDRFSGSKSGTSASLAISGLQSEDEADYYCAAWDDSLNGQVFGGGTKLTVL
Koff H5-VN04 (binding [1]): 0.000383 s⁻¹ and 0.000387 s⁻¹
Kon H5-VN04 (binding [1]): 375000 M⁻¹ s⁻¹ and 327000 M⁻¹ s⁻¹
Koff H3-PE09 (binding [2]): 3.99e-05 s⁻¹
Kon H3-PE09 (binding [2]): 152000 M⁻¹ s⁻¹
binding to trimeric full-length H3 A/Perth/16/09 (binding [2]): bound
Kd (binding [3]): 1.05 nM
affinity for H1 subtypes (binding [4]): high affinity
binding to cell surface-expressed HAs by flow cytometry (cell_based [5]): bound
IC50 H3-BR07 infectious virus (cell_based [6]): 0.3054 µg/mL
IC50 H5-VN04 pseudovirus (cell_based [7]): 0.08158 µg/mL
body weight loss, H7N7-NL219 challenge (in_vivo [8]): minimal body weight loss
protection from death, H7N7-NL219 challenge (in_vivo [8]): fully protected
body weight loss, H7N9-AH13 challenge (in_vivo [9]): minimal body weight loss
protection from death, H7N9-AH13 challenge (in_vivo [9]): fully protected
protection against H3N2-BR07 (in_vivo [10]): 80%
protection against H3N2-BR07, over doses (in_vivo [10]): 60-80%
protection against H5N1-VN04 (in_vivo [11]): 60%
protection against H5N1-VN04, over doses (in_vivo [11]): 20-60%
prevention of trypsin cleavage of immature HA0 (biochemical_functional): prevented cleavage of immature HA0
HA1-HA2 dissociation after DTT treatment (cell_based [12]): prevented HA1-HA2 dissociation
binding to dissociated HA2 mediated by DTT reduction (cell_based [12]): did not bind
binding to uncleaved HA precursor (HA0) and mature forms (HA) (cell_based [12]): binds to both uncleaved HA precursor (HA0)
inhibition of pH-dependent HA rearrangement (cell_based [12]; pH 4.9): inhibits the pH-dependent HA rearrangement
luciferase response in Jurkat reporter cells (ADCC), H3 targets (cell_based [13]): induced a significant luciferase response
luciferase response in Jurkat reporter cells (ADCC), H5 targets (cell_based [14]): at a lower level than FI6v3, CR9114, 39.29 and F10
inhibition of binding of 39.29 and F10 to H5-VN04 (binding [15]): inhibited; also recorded: partially inhibits
inhibition of binding of anti-H5 head antibody 2A to H5-VN04 (binding [15]): did not inhibit; also recorded: does not inhibit
binding to HA1 subunit of H3 PE-09 (binding [16]): did not bind
virus levels in the lungs at high doses (in_vivo [17]; doses ≥5 mg/kg): reduced virus levels
increase of viral titers in lung tissue, 3I14 compared to 3I14 LALA (in_vivo [17]; intermediate low dose levels): ~2 fold
virus levels in the lungs compared with controls (in_vivo [17]; intermediate low dose levels, IP 1 hour prior to intranasal challenge, Day 4): ~2 fold
Koff H1-CA09 (binding [18]): 4.87e-05 s⁻¹
Kon H1-CA09 (binding [18]): 174000 M⁻¹ s⁻¹
Kd (binding [18]; read-out: Kd H1-CA09): 0.279 nM
Kd (binding [19]): 5.23 nM
IC50 H1-CA09 (cell_based [20]): 0.225 µg/mL
IC50 H1-PR8 (cell_based [21]): 0.413 µg/mL

B2: 3I14 Fab: Fab of 3I14 used in the binding competition ELISA (antibody, V domains shown)
VH: B1 VH
VL: B1 VL
competition with E730 (anti-HA1 head Ab) for binding to H3-BR07 (binding [22]): did not compete
competition with anti-stem Abs CR8020, CR9114, FI6(v3) and 39.29 for binding to H3-BR07 (binding [22]): cross-competed; also recorded: strongly inhibits

B3: MHAA4549A: Genentech broadly neutralizing influenza A mAb (antibody, chains of the INN, looked up, V domains shown)
VH: EVQLVESGGGVVQPGKSLRLSCAASGLTFSSYAVHWVRQAPGKGLEWVTLISYDGANQYYADSVKGRFTISRDNSKNTVYLQMNSLRPEDTAVYYCAVPGPVFGIFPPWSYFDNWGQGILVTVSS
VL: EIVLTQSPATLSVSPGERATLSCRASQVISHNLAWYQQKPGQAPRLLIYGASTRASGIPARFSGSGSGTDYTLTITSLQSEDFAVYYCQHYSNWPPRLTFGGGTKVEIK
viral load (in_vivo [23]; 1200 mg, listed as MHAA4549A/Gedivumab): increase in viral load
viral loads (in_vivo [23]; 400 and 3600 mg): reduction in viral loads
O2 or ventilation support (in_vivo [24]): required increase in O2 or ventilation support
duration of viral shedding (in_vivo [24]): increased duration of viral shedding
fatality due to any cause (in_vivo [24]): higher fatality percentage due to any cause

Source: patent US20260167702A1, “HUMAN BROADLY CRO[…] […] METHODS OF USE THEREOF” (Dana-Farber Cancer Institute, Inc., priority 2021, published 2026)
